Data taken from paper PMC2593004, “Evolutionary Diversification of Plant Shikimate Kinase Gene Duplicates” (PLoS Genetics, 2008).

What was measured:
[1] = substrate: Nc1ncnc2c1ncn2[C@@H]1O[C@H](COP(=O)(O)OP(=O)(O)OP(=O)(O)O)[C@@H](O)[C@H]1O; test: purified protein; type: biochemical, Arabidopsis thaliana; conditions: apparent Km, 2.5 mM shikimate fixed, 100 mM Tris-HCl pH 8.0, 25°C
[2] = substrate: O=C(O)C1=C[C@@H](O)[C@@H](O)[C@H](O)C1; test: purified protein; type: biochemical, Arabidopsis thaliana; conditions: apparent Km, 2.5 mM ATP fixed, 100 mM Tris-HCl pH 8.0, 25°C

B1: AtSK1Δ55 (Arabidopsis thaliana) (protein)
chain: DQRRAVSPAVSCSDNNSSALLETGSVYPFDEDILKRKAEEVKPYLNGRSMYLVGMMGSGKTTVGKLMSKVLGYTFFDCDTLIEQAMNGTSVAEIFVHHGENFFRGKETDALKKLSSRYQVVVSTGGGAVIRPINWKYMHKGISIWLDVPLEALAHRIAAVGTDSRPLLHDESGDAYSVAFKRLSAIWDERGEAYTNANARVSLENIAAKRGYKNVSDLTPTEIAIEAFEQVLSFLEKEETMEIPDGDL
notes: predicted N-terminal chloroplast transit peptide removed (55 residues truncated)
B1 was tested, and the Km [1] was 218.02 ± 12.27 µM, the kcat [1] was 162 ± 3.01 s⁻¹ and the Km [2] was 648.32 ± 23.45 µM. The kcat [2] was 148 ± 2.32 s⁻¹.

B2: AtSK2Δ55 (Arabidopsis thaliana) (protein)
chain: LRSVSDKNSSALLETGSLLHSPFDEEQQILKKKAEEVKPYLNGRSMYLVGMMGSGKTTVGKIMARSLGYTFFDCDTLIEQAMKGTSVAEIFEHFGESVFREKETEALKKLSLMYHQVVVSTGGGAVIRPINWKYMHKGISIWLDVPLEALAHRIAAVGTGSRPLLHDDESGDTYTAALNRLSTIWDARGEAYTKASARVSLENITLKLGYRSVSDLTPAEIAIEAFEQVQSYLEKEDGMARPDGL
notes: as for B1
B2 gave a Km [1] of 246.7 ± 22.56 µM, a kcat [1] of 149 ± 5.04 s⁻¹ and a Km [2] of 422.15 ± 31.16 µM. The kcat [2] was 136 ± 4.97 s⁻¹.
